The results in this text go back to patent US11028172 (LEPU BIOPHARMA, dated 2021).

Test [1] has as its target T1, human TIGIT-His protein (human, UniProt Q495A1 22-141).
T1 construct: Recombinant protein; also called human TIGIT-his tag; hTIGIT-His
T1 sequence (looked up): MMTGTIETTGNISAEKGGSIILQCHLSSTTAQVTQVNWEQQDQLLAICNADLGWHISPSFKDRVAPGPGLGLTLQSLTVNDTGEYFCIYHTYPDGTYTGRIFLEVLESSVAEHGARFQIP
Nature of the test: ELISA, plate coated with human TIGIT-His, anti-human IgG-HRP, OD 450nm; unit taken from the axis Log[Conc.]/ng/ml. Here is the method: (§1) To evaluate the antigen binding activity, Hu02 and Hu06 were subjected to ELISA test. Briefly, microtiter plates were coated with human TIGIT-his protein at 0.5 µg/ml in PBS, 100 µl/well at 4° C. overnight, then blocked with 150 µl/well of 1% BSA. Three-fold dilutions of humanized antibodies starting from 3 µg/ml were added to each well and incubated for 1 hour at 37° C. The plates were washed with PBS/Tween and then incubated with Goat-anti-human IgG antibody conjugated with Horse Radish Peroxidase (HRP) for 0.5 hour at 37° C. After washing, the plates were developed with TMB substrate and analyzed by spectrophotometer at OD 450 nm.
A general note: An ELISA detects its analyte on a solid surface through an enzyme-linked reagent.

For test [2], the target named is T1, human TIGIT-His protein. Described as above. How it is done: as §1, with “the humanized antibodies” for “Hu02 and Hu06”, “30 mins” for “0.5 hour”
This is another data set of the same source.

Test [3] addresses T2, biotin-labeled human TIGIT protein (human, UniProt Q495A1 22-141, biotin-labeled (sites not given)).
T2 construct: also called recombinant human TIGIT
T2 sequence (looked up): T1 sequence (looked up)
The test is described as follows: ELISA blocking assay: CD155-hFc coated, biotin-labeled human TIGIT, antibody titrated. How it is done: To evaluate the blocking effects of Hu02 and Hu06 on recombinant human TIGIT to bind to its receptor CD155, an ELISA based receptor blocking assay was used.
Briefly, microtiter plates were coated with human CD155-hFc protein at 5 µg/ml in PBS, 100 µl/well at 4° C. overnight, then blocked with 150 µl/well of 1% BSA. 50 µl biotin-labeled human TIGIT protein and 3-fold dilutions of Hu02 and Hu06 antibodies starting from 10 µg/ml at 50 µl were added to each well and incubated for 1 hour at 37° C. The plates were washed with PBS/Tween and then incubated with Streptavidin-HRP for 10 mins at 37° C. After washing, the plates were developed with TMB substrate and analyzed by spectrophotometer at OD 450 nm.

In test [4] the target is T1, human TIGIT-His protein. The test is described as follows: SPR (Biacore) affinity ranking, human TIGIT-His. Background: SPR reads the build-up and loss of mass on a sensor chip optically.
A further test addresses T3, mouse TIGIT protein (mouse, UniProt P86176 29-148, limits assumed).
T3 construct: Recombinant protein coated on the plate
T3 sequence (looked up): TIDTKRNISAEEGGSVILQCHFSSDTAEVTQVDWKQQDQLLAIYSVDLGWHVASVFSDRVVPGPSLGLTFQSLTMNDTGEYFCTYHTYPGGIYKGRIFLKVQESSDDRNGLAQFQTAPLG
The test is described as follows: ELISA, mouse TIGIT coated at 0.5 µg/ml. How it is done: (§2) ELISA testing was carried out to evaluate the binding of chimeric antibodies to human, mouse, rat, and cyno TIGIT, respectively. Briefly, microtiter plates were coated with human, mouse, rat and cyno TIGIT proteins at 0.5 µg/ml in PBS, 100 µl/well at 4° C. overnight, then blocked with 150 µl/well of 1% BSA. Three-fold dilutions of chimeric antibodies or biotinylated chimeric antibodies starting from 10 µg/ml were added to each well and incubated for 1 hour at 37° C. The plates were washed with PBS/Tween and then incubated with Goat-anti-human IgG Fab antibody conjugated with Horse Radish Peroxidase (HRP) or Streptavidin-HRP for 30 mins at 37° C. After washing, the plates were developed with TMB substrate and analyzed by spectrophotometer at OD 450 nm.

For test [5], the target named is T4, human TIGIT expressed on cells (human, UniProt Q495A1 22-244).
T4 sequence (looked up): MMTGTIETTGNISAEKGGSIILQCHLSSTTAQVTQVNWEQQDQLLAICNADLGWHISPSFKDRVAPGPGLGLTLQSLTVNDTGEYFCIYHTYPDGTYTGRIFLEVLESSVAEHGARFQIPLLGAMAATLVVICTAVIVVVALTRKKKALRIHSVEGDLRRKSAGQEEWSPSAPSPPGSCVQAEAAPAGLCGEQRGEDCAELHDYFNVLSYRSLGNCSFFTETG
Nature of the test: cell-based or functional assay.

The target in test [6] is T1, human TIGIT-His protein. The test is described as follows: SPR (Biacore T200), antibody captured on CM5 chip, TIGIT-His as analyte. How it is done:
The binding of the 76D12B10 antibodies to recombinant TIGIT protein (human TIGIT-his tag) was tested with BIACORE™ using a capture method. The 76D12B10 mAbs was captured using CM5 chip. A series dilution of human TIGIT-his tag protein was injected over captured antibody for 1 min at a flow rate of 30 µl/min. The antigen was allowed to dissociate for 300 s. All the experiment were carried out on a Biacore T200. Data analysis was carried out using Biacore T200 evaluation software.

Test [7] concerns the target T1, human TIGIT-His protein. The test is described as follows: ELISA, human TIGIT-His coated. Here is the method: To evaluate the binding activity of 76D12B10, the chimeric mAb was subjected to ELISA test. Briefly, microtiter plates were coated with human TIGIT-His protein at 0.5 µg/ml in PBS, 100µl/well at 4° C. overnight, then blocked with 150 µl/well of 1% BSA. Three-fold dilutions of 76D12B10 antibodies starting from 10 µg/ml were added to each well and incubated for 1 hour at 37° C. The plates were washed with PBS/Tween and then incubated with Goat-anti-human IgG antibody conjugated with Horse Radish Peroxidase (HRP) for 30 mins at 37° C. After washing, the plates were developed with TMB substrate and analyzed by spectrophotometer at OD 450 nm.
as §2

For test [8], the target named is T1, human TIGIT-His protein. Nature of the test: ELISA, plate coated with human TIGIT-His, anti-human IgG-HRP, OD 450nm; unit taken from the axis Log[Conc.]/ng/ml. How it is done: To evaluate the antigen binding activity, LP010-02 (Hu02-human IgG1 Fc) and control antibody Tiragolumab (RG6058, Roche), which contains the same IgG1 Fc, were subjected to ELISA testing. Briefly, microtiter plates were coated with human TIGIT-his protein at 0.5 µg/ml in PBS, 100 µl/well at 4° C. overnight, then blocked with 150 µl/well of 1% BSA. Three-fold dilutions of humanized antibodies starting from 3 µg/ml were added to each well and incubated for 1 hour at 37° C. The plates were washed with PBS/Tween and then incubated with Goat-anti-human IgG antibody conjugated with Horse Radish Peroxidase (HRP) for 0.5 hour at 37° C. After washing, the plates were developed with the TMB substrate and analyzed by spectrophotometer at OD 450 nm.
The source holds these as a separate data set.

Test [9] has as its target T4, human TIGIT expressed on cells. The test is described as follows: cell-based or functional assay. This is another data set of the same source.
The target is the same in test [10]. Nature of the test: flow cytometry (FACS) on human TIGIT overexpressing mammalian cells. How it is done:
(§3) To evaluate the antigen binding property, the humanized antibodies were analyzed for their binding to human TIGIT overexpressed mammalian cells by FACS. Briefly, human TIGIT cells were firstly incubated with 3-fold serious diluted humanized antibodies starting at 5 µg/ml at 4° C. for 40 mins.
In general terms: A flow cytometer gives signals particle by particle.

The target is the same in test [11]. The test is described as follows: flow cytometry on human TIGIT overexpressing cells, Alexa Fluor 647 anti-human IgG; unit from the x axis. Here is the method:
as §3

B1: 76D12B10 chimeric antibody (antibody, V domains shown)
VH: DVQLQESGPGMVKPSQSLSLTCTATGYSITSGYDWHWIRHFPGKKLEWMGFIRDSGSTVYNPSLKGRISITHDTSKNRFFLKLNSVTPEDTATYFCARGLFWYFDVWGTGTTVTVSS
VL: DIQMTQSPASLSASVGETVTITCRTSENIFSYLAWYQQKQGNSPQLLVHNTKTLAEGVPSRFSGSGSGTQFSLKISNLQPEDFGSYYCQHHYGNPLTFGAGTKLELK
notes: Mouse variable regions of hybridoma clone 76D12B10; tested as chimeric mAb (detected with anti-human IgG); also called 76D12B10-Chimera; 76D12B10 chimera
B1: the EC50 stood at 7.6 ng/mL in the test with human TIGIT-His protein [1], 9.37 ng/mL with human TIGIT-His protein [2] and 8.57 ng/mL with human TIGIT-His protein [7]. This molecule yielded a concentration for half-maximal inhibition (IC50) in [3] of 1110 ng/mL. For the same molecule, the Kd was 16.1 pM with human TIGIT-His protein [4] and 259 pM with human TIGIT-His protein [6]. For the same molecule, the koff came out at 0.000182 s⁻¹ in the test with human TIGIT-His protein [4] and 0.000326 s⁻¹ with human TIGIT-His protein [6]. For the same molecule, the on-rate (kon) with human TIGIT-His protein [4] came out at 1.13e+07 M⁻¹ s⁻¹; with human TIGIT-His protein [6], 1.26e+06 M⁻¹ s⁻¹. For the same molecule, the binding result with mouse TIGIT protein was “no binding”. Also, the “NFAT luciferase production, EC50” value in [5] amounted to 1240 pM.

B2: LP010-02 (Hu02-human IgG1 Fc) (antibody, V domains shown)
VH: EVQLQESGPGLVKPSETLSLTCAVSGYSISSGYDWHWIRQPPGKGLEWIGFIRDSGSTVYNPSLKGRITISHDTSKNQFSLKLSSVTAADTAVYYCARGLFWYFDVWGQGTTVTVSS
VL: DIQMTQSPSSLSASVGDRVTITCRTSENIFSYLAWYQQKPGKVPKLLIYNTKTLAEGVPSRFSGSGSGTDFTLTISSLQPEDVATYYCQHHYGNPLTFGQGTKLEIK
On to B2, for which the results for the EC50 (in the test with human TIGIT-His protein [8]; in [10]) were 6.54 ng/mL and 32.8 ng/mL, respectively. The same molecule returned an IC50 in [3] of 531 ng/mL. Also, the “EC50, NFAT luciferase reporter (RLU), TIGIT-CD226-NFAT effector cells with Raji-CD155 target cells” value in test [9] was 1950 pM. For the same molecule, in test [9], the “LogEC50, NFAT luciferase reporter (RLU), TIGIT-CD226-NFAT effector cells with Raji-CD155 target cells” value is 0.29 Log[Conc.]/nM. In addition, the LogEC50 in [11] was found to be 1.52 Log[Conc.]/ng/ml.

A word on the EC50: it is the concentration giving half of the maximal effect. A lower EC50 goes with higher potency in that assay. As a reminder, the IC50 is the concentration that inhibits the measured activity by half. Higher therefore signals a need for much substance. Broadly, the Kd is the free concentration of one partner at which half of the binding sites on the other are occupied at equilibrium, for simple one-to-one binding. The low end stands for tighter binding, the high end for weaker binding. The term koff denotes a measure of how fast the partners let go of each other. A higher koff goes with fast dissociation. As usually defined, the kon is a measure of how fast the partners come together.
